From patent US20220251236A1 (Boehringer Ingelheim, published 2022)
Positions count from the first letter of the chain named.

T1: human DLL3 (endogenous, on SCLC cell lines NCI-H82 and SHP77 and in SCLC tissue) (human, UniProt Q9NYJ7 27-618)
T1 sequence (looked up): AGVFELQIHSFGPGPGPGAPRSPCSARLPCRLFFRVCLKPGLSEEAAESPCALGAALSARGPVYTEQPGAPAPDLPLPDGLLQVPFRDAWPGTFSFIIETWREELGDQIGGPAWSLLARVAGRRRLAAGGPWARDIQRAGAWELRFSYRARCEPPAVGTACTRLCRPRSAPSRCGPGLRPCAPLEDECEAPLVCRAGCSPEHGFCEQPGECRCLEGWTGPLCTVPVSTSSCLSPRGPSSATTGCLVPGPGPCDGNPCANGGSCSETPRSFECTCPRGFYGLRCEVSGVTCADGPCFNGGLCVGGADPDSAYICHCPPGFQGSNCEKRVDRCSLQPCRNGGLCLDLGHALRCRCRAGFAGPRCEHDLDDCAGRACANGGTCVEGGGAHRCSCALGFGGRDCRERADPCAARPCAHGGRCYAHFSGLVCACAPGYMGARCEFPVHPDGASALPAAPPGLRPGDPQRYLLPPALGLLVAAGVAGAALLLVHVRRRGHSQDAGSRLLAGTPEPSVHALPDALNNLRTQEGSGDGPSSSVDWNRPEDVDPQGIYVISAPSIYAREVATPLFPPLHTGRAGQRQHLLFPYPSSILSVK

T2: EGF6+MEMBRANE PROXIMAL PEPTIDE
T2 construct: also called Hu DLL3 EGF6+membrane proximal peptide on HEK293 cells
T2 membrane-anchored DLL3 subdomain construct: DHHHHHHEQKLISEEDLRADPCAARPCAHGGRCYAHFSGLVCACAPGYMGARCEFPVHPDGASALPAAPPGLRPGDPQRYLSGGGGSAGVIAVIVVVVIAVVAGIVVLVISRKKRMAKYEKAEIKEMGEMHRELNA

B1: DLL3#2/CD3#1 (bispecific antibody, human IgG1, kappa, lambda, L234A L235A)
chain 1: DIQMTQSPSAMSASVGDRVTITCRASQGISNYLAWFQQKPGKVPEPLIYAASSLQSGVPSRFSGSGSVTEFTLTISSLQPEDFATYYCLQHNSSPYTFGQGTKLEIKRTVAAPSVFIFPPSDEQLKSGTASVVCLLNNFYPREAKVQWKVDNALQSGNSQESVTEQDSKDSTYSLSSTLTLSKADYEKHKVYACEVTHQGLSSPVTKSFNRGECGGGGSEGKSSGSGSESKSTEGKSSGSGSESKSTGGGGSQVQLVQSGAEVKKPGASVKVSCKASGYTFTSYYMHWVRQAPGQGLEWMGIINPSGGSTSYAQKFQGRVTMTRDTSTSTVYMELSSLRSEDTAVYYCARGEAVGGNYYYYGMDVWGQGTTVTVSSASTKGPSVFPLAPSSKSTSGGTAALGCLVKDYFPEPVTVSWNSGALTSGVHTFPAVLQSSGLYSLSSVVTVPSSSLGTQTYICNVNHKPSNTKVDKRVEPKSCDKTHTCPPCPAPEAAGGPSVFLFPPKPKDTLMISRTPEVTCVVVDVSHEDPEVKFNWYVDGVEVHNAKTKPREEQYNSTYRVVSVLTVLHQDWLNGKEYKCKVSNKALPAPIEKTISKAKGQPREPQVYTLPPSREEMTKNQVSLWCLVKGFYPSDIAVEWESNGQPENNYKTTPPVLDSDGSFFLYSKLTVDKSRWQQGNVFSCSVMHEALHNHYTQKSLSLSPG
chain 2: EAVVTQEPSLTVSPGGTVTLTCRSSTGAVTTSNYANWVQEKPGQLPRGLIGGTNKRAPWVPARFSGSLLGGKAALTLSGAQPEDEAEYFCALWYSNLWVFGGGTKLTVLGQPKAAPSVTLFPPSSEELQANKATLVCLISDFYPGAVKVAWKADGSPVNTGVETTTPSKQSNNKYAASSYLSLTPEQWKSHRSYSCQVTHEGSTVEKTVAPAECSGGGGSEGKSSGSGSESKSTEGKSSGSGSESKSTGGGGSEVQLVESGGGLVQPGGSLKLSCAASGFTFNTYAMNWVRQAPGKGLEWVARIRSKYNNYATYYADSVKDRFTISRDDSKNTAYLQMNNLKTEDTAVYYCVRHGNFGNSYVSWFAYWGQGTLVTVSAASTKGPSVFPLAPSSKSTSGGTAALGCLVKDYFPEPVTVSWNSGALTSGVHTFPAVLQSSGLYSLSSVVTVPSSSLGTQTYICNVNHKPSNTKVDKRVEPKSCDKTHTCPPCPAPEAAGGPSVFLFPPKPKDTLMISRTPEVTCVVVDVSHEDPEVKFNWYVDGVEVHNAKTKPREEQYNSTYRVVSVLTVLHQDWLNGKEYKCKVSNKALPAPIEKTISKAKGQPREPQVYTLPPSREEMTKNQVSLSCAVKGFYPSDIAVEWESNGQPENNYKTTPPVLDSDGSFFLVSKLTVDKSRWQQGNVFSCSVMHEALHNRFTQKSLSLSPG
notes: Heterodimer of one DLL3 chain and one CD3 chain (scFab-Fc, knob-in-hole)
B2: DLL3#13/CD3#1 (bispecific antibody, human IgG1, kappa, lambda, L234A L235A)
chain 1: DVLMTQTPLSLPVSLGDQAAISCRSSQSIVHSNGNTYLEWYLQKPGQSPKVLIYKVSNRFSGVPDRFSGSGSGTDFTLKISRVEAEDLGVYYCFQGSHVPYTFGGGTKLEIKRTVAAPSVFIFPPSDEQLKSGTASVVCLLNNFYPREAKVQWKVDNALQSGNSQESVTEQDSKDSTYSLSSTLTLSKADYEKHKVYACEVTHQGLSSPVTKSFNRGECGGGGSEGKSSGSGSESKSTEGKSSGSGSESKSTGGGGSQIQLVQSGPELKKPGETVKISCKASGYTFTNYGVTWVKQAPGKGLKWMGWINTYSGAPTYADDFNGRFALSLETSASTAYLQINNLKNEDTATYFCARLDDYDLYYFDYWGQGTALTVSSASTKGPSVFPLAPSSKSTSGGTAALGCLVKDYFPEPVTVSWNSGALTSGVHTFPAVLQSSGLYSLSSVVTVPSSSLGTQTYICNVNHKPSNTKVDKRVEPKSCDKTHTCPPCPAPEAAGGPSVFLFPPKPKDTLMISRTPEVTCVVVDVSHEDPEVKFNWYVDGVEVHNAKTKPREEQYNSTYRVVSVLTVLHQDWLNGKEYKCKVSNKALPAPIEKTISKAKGQPREPQVYTLPPSREEMTKNQVSLWCLVKGFYPSDIAVEWESNGQPENNYKTTPPVLDSDGSFFLYSKLTVDKSRWQQGNVFSCSVMHEALHNHYTQKSLSLSPG
chain 2: B1 chain 2
notes: as for B1
B3: DLL3#3/CD3#1 (bispecific antibody, human IgG1, kappa, lambda, L234A L235A)
chain 1: DIQMTQSPSAMSASVGDRVTITCRASQGISNYLVWFQQKPGKAPKRLIYAVSSLYSGVPSRFSGSGSGTEFTLTISSLQPEDFATYYCLQHDSYPYTFGQGTKLEIKRTVAAPSVFIFPPSDEQLKSGTASVVCLLNNFYPREAKVQWKVDNALQSGNSQESVTEQDSKDSTYSLSSTLTLSKADYEKHKVYACEVTHQGLSSPVTKSFNRGECGGGGSEGKSSGSGSESKSTEGKSSGSGSESKSTGGGGSQVQLVQSGAEVKKPGASVKVSCKASGYTFTSYYVHWVRQAPGQGLEWMVIINPGGGTTSYAQKFLGRVTMTRDTSTNTVYMELKSLRSEDTAVYYCARGEAVTGNYFYYGMDVWGQGTTVTVSSASTKGPSVFPLAPSSKSTSGGTAALGCLVKDYFPEPVTVSWNSGALTSGVHTFPAVLQSSGLYSLSSVVTVPSSSLGTQTYICNVNHKPSNTKVDKRVEPKSCDKTHTCPPCPAPEAAGGPSVFLFPPKPKDTLMISRTPEVTCVVVDVSHEDPEVKFNWYVDGVEVHNAKTKPREEQYNSTYRVVSVLTVLHQDWLNGKEYKCKVSNKALPAPIEKTISKAKGQPREPQVYTLPPSREEMTKNQVSLWCLVKGFYPSDIAVEWESNGQPENNYKTTPPVLDSDGSFFLYSKLTVDKSRWQQGNVFSCSVMHEALHNHYTQKSLSLSPG
chain 2: B1 chain 2
notes: as for B1
B4: DLL3#3/CD3#2 (bispecific antibody, human IgG1, kappa, lambda, L234A L235A)
chain 1: B3 chain 1
chain 2: B1 chain 2 with N309I
notes: as for B1

Experiments:
[1] = biological target: T1, human DLL3 (endogenous, on SCLC cell …); test: cell-based or functional assay
[2] = biological target: T1, human DLL3 (endogenous, on SCLC cell …); test: cell-based or functional assay; remark: listed apart in the source
[3] = biological target: T2, EGF6+MEMBRANE PROXIMAL PEPTIDE; test: flow cytometry on HEK293 cells expressing the DLL3 subdomain construct, 1.6 nM binder, PE anti-human secondary, control: secondary antibody only
Experimental: DLL3/CD3 binding proteins were produced by transient transfection of CHO-E cells with the pTT5 vectors carrying the chain-encoding genes, as described in Example 2. […] Bound molecules were detected with PE-conjugated anti-human secondary antibody (Sigma-Aldrich, #P8047). As negative control, cells were incubated with secondary antibody only.
The samples were measured by flow-cytometry. […] The sequences of the epitope domains are listed in Example 5, Table 3.

[4] = biological target: T1, human DLL3 (endogenous, on SCLC cell …); test: flow cytometry titration on NCI-H82 cells, PE anti-human secondary, x-fold over background
Text: Cells (T cells or human SCLC cells) were stained with increasing concentrations of two-step purified DLL3/CD3 binding proteins with increasing concentrations in FACS buffer (PBS/0.5% BSA/0.05% sodium azide). Bound molecules were detected with PE-conjugated anti-human secondary antibody (Sigma-Aldrich, #P8047).

[5] = biological target: T3, chicken egg white lysozyme (chicken, UniProt P00698 19-147); test: SPR (Biacore T200), lysozyme coupled to CM5 chip, non-specific binding assay
T3 construct: also called Lysozyme (positive)
Experimental: The experiment was performed on a Biacore T200. The dilution, surface preparation, and binding experiments were performed at 25° C. in 1×HBS-EP buffer prepared from 10× HBS-EP. The flow rate for both the immobilization protocol and binding experiment was at 5 μL/min.
To prepare the surface for the non-specific binding experiment, chicken egg white lysozyme and trypsin inhibitor from glycine max soybean were coupled manually to a series S CM5 chip with the surface density of 3000-5000 RU using the amine coupling kit according to the manufacture instructions.
Samples were prepared at 1 μM in 1×HBS-EP buffer. The samples were injected over activated surfaces with a 10 min association and 10 min dissociation. The data was collected using Biacore T200 Control Software version 2.0.1 and analyzed using Biacore T200 Evaluation Software version 3.0.

[6] = biological target: T4, Human CD3 E+G HuFc-6xHis (human); test: SPR (ProteOn XPR36), CD3εγ-Fc amine-coupled, bispecific as analyte, equilibrium fit, Example 4A
T4 construct: also called hu CD3εγ-Fc
Experimental: The binding affinity of purified DLL3/CD3 bispecific constructs for recombinant human and cyno DLL3-ECD and Fc-fusion proteins of human and cyno CD3 εγ subunits was determined by Surface Plasmon Resonance (SPR), using a ProteOn XPR36 instrument (Bio-Rad). The running buffer and all dilutions (except where stated) were done in PBS-T-EDTA. The GLM sensor chip (Bio-Rad) was normalized and pre-conditioned as per the manufacturer's recommendations. The sensor chip was activated with equal mixture of EDC/s-NHS in the horizontal direction for 300 sec at a flow rate of 30 ul/min and immobilized with protein A/G (20 ug/ml in 10 mM acetate pH 4.5) in the horizontal direction for 300 sec at a flowrate of 30 ul/min resulting in ˜5000 RU of protein A/G on the surface. The sensor chip was deactivated with 1M ethanolamine HCl in the horizontal direction for 300 sec at a flowrate of 30 μl/min.
For binding kinetic determination to CD3, hu CD3εγ-Fc and cy CD3εγ-Fc (dissolved in pH 4.5 acetate) was immobilized directly onto the sensor surface through amine coupling for 140 sec at a flowrate of 30 μl/min vertically. The baseline was stabilized by injecting PBS-T-EDTA for 60 sec at a flowrate of 40 μl/min horizontally. The analyte (the bispecific molecule) was injected horizontally over the captured CD3εγ-Fc construct for 600 sec at a flowrate of 40 μl/min and a dissociation for 600 sec.
The inter spot (interactions with sensor surface) and blank (PBS-T-EDTA) were subtracted from the raw data.

T3 sequence (P00698 19-147): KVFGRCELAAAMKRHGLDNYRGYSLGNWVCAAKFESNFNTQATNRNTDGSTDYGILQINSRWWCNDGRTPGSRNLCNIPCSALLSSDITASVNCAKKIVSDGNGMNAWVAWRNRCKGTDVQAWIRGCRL
T4 sequence (chain, as listed by the source limits assumed): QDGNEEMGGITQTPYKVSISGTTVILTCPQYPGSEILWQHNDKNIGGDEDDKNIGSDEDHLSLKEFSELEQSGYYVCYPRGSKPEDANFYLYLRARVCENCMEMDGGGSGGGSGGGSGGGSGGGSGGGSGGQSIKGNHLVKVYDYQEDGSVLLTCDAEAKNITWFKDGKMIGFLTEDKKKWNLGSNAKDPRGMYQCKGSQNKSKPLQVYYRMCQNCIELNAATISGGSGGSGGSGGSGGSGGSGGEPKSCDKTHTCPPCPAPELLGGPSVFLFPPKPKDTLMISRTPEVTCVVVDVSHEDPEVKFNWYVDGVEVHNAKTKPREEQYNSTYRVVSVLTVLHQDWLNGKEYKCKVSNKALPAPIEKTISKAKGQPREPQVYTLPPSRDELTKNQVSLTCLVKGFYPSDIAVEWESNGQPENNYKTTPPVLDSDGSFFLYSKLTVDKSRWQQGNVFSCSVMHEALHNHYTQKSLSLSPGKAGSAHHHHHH

| Binder | EC90, 72 hour cytotoxicity assay (LDH release), non-stimulated PBMCs as effector cells, NCI-H82 target cells [1] [nM] | EC90, 72 hour cytotoxicity assay (LDH release), non-stimulated PBMCs as effector cells, SHP77 target cells [1] [nM] | EC90, 72 hour cytotoxicity assay, purified T cells as effector cells, NCI-H82 target cells [2] [nM] | EC90, 72 hour cytotoxicity assay, purified T cells as effector cells, SHP77 target cells [2] [nM] | binding result [3] | EC50 (read off the curve) [4] [nM] | binding result [5] | Kd [6] [nM] |
| --- | --- | --- | --- | --- | --- | --- | --- | --- |
| B1 | 2.9 | 3.4 | 1.51 | 0.16 | binds | – | – | – |
| B2 | – | – | – | – | – | ~1 | – | – |
| B3 | 0.9 | 1.5 | 0.27 | 0.02 | binds | – | no binding (tested: 1 µM) | 7 |
| B4 | 3.9 | 16.5 | 2.5 | 3 | binds | – | no binding (tested: 1 µM) | 90 |
